Experiments:
Details in all cases: partners not purified
GFP-SNX4 S448R = target: T1, GFP-SNX4 S448R (UniProt O95219 1-450, S448R); test: co-IP; GST-GFP nanobody (GBP) on glutathione Sepharose beads, 2 h at 4°C with HeLa cell lysate overexpressing GFP-SNX4 (WT or mutant) and HA-SNX32 (WT or mutant); immunoblot anti-GFP and anti-HA
T1 construct: Sorting nexin 4 (SNX4) with S448R in the BAR domain, by site directed mutagenesis of GFP-tagged SNX4; also called pEGFP SNX4S448R; source: HeLa, transfected, overexpressed, in lysate
T1 sequence (looked up): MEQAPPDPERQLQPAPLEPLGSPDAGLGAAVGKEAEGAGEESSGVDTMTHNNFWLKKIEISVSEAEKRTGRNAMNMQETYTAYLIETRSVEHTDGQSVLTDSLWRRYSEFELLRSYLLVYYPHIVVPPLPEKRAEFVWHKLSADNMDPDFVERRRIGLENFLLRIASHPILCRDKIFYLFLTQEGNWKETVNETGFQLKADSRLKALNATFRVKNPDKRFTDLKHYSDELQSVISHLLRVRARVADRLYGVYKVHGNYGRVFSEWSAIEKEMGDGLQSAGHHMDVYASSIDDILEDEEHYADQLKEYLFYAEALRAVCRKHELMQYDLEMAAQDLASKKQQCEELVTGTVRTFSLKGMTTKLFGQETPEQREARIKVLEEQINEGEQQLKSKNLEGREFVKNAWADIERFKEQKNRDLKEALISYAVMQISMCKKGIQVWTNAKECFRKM

GFP-SNX4 Y258E = target: T2, GFP-SNX4 Y258E (UniProt O95219 1-450, Y258E); test: as above
T2 construct: Sorting nexin 4 (SNX4) with Y258E in the BAR domain, by site directed mutagenesis of GFP-tagged SNX4; also called pEGFP SNX4Y258E; source: HeLa, transfected, overexpressed, in lysate
T2 sequence (looked up): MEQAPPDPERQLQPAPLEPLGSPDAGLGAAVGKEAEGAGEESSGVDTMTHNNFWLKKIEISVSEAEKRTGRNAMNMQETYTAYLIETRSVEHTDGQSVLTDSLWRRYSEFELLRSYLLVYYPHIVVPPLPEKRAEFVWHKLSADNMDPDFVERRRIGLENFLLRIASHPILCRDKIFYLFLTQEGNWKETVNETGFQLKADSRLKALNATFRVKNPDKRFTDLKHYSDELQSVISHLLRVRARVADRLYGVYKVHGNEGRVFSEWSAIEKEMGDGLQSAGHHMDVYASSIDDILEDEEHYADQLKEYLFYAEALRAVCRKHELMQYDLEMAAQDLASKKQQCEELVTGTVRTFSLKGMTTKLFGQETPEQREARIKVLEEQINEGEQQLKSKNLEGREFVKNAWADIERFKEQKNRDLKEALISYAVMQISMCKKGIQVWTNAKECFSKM

GFP-SNX32 WT = target: T3, GFP-SNX32 WT (UniProt Q86XE0 1-403); test: co-IP; GST-GFP nanobody (GBP) on glutathione Sepharose beads, 2 h at 4°C with HEK293T cell lysate overexpressing GFP-tagged and HA-tagged SNX proteins; washed with PBS; immunoblot anti-GFP and anti-HA
T3 construct: Sorting nexin 32 (SNX32), full length; pEGFP C1 SNX32 FL, gift from Prof Peter J Cullen; also called GFP-SNX32 wild type; GFP-tagged SNX32; source: HEK293T or HeLa, transiently transfected, in lysate; SH-SY5Y, lentivirally transduced, stably expressing, in lysate
T3 sequence (looked up): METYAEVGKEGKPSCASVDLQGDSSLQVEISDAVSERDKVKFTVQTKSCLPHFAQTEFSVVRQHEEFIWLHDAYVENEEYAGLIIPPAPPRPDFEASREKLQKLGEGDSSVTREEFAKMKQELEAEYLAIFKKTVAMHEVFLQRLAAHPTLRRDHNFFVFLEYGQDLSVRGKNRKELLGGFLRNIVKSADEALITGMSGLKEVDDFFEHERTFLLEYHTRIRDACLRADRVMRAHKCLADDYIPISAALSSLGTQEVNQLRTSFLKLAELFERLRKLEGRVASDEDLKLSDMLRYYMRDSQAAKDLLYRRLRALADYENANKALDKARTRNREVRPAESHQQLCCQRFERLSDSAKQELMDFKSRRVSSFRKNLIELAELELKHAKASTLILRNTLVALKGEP

GFP-SNX8 = target: T4, GFP-SNX8 (UniProt Q9Y5X2 1-465); test: as above
T4 construct: Sorting nexin 8 (SNX8); source: HEK293T, transfected, overexpressed, in lysate
T4 sequence (looked up): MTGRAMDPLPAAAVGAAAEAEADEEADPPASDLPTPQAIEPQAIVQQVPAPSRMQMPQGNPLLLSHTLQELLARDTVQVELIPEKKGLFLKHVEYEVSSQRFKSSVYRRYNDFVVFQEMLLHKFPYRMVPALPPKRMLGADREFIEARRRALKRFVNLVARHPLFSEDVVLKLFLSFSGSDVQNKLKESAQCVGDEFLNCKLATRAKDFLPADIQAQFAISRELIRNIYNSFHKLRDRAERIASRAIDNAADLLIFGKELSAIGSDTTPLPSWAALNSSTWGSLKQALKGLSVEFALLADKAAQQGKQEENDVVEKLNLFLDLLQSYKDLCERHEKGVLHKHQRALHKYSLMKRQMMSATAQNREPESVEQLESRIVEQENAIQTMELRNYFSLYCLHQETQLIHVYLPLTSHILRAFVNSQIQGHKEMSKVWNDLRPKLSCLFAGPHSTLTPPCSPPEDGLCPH

GFP-SNX1 = target: T5, GFP-SNX1 (UniProt Q13596 1-522); test: as above
T5 construct: Sorting nexin 1 (SNX1); pEGFP C1 SNX1, gift from Prof Peter J Cullen; also called GFP-SNX1 WT; source: HEK293T or HeLa, transfected, overexpressed, in lysate
T5 sequence (Q13596 whole entry): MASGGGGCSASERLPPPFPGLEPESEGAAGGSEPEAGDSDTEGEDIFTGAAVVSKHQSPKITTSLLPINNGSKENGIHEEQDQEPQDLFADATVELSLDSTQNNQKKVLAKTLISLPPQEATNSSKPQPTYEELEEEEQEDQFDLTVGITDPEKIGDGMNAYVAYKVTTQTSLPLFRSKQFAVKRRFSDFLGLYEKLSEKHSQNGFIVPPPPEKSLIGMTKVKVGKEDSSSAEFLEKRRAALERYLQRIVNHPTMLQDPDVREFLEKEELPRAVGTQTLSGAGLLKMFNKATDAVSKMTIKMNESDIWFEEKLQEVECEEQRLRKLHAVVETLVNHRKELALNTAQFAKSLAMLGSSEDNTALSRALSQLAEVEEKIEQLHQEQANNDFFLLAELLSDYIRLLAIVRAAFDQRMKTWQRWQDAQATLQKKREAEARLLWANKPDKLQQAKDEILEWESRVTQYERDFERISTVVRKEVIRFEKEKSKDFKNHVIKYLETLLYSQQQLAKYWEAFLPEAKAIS

GFP-SNX4 = target: T6, GFP-SNX4 (UniProt O95219 1-450); test: co-IP; GST-GFP nanobody (GBP) on glutathione Sepharose beads, 2 h at 4°C with HeLa cell lysate overexpressing GFP-SNX4 (WT or mutant) and HA-SNX32 (WT or mutant); immunoblot anti-GFP and anti-HA
T6 construct: Sorting nexin 4 (SNX4); pEGFP C1 SNX4, gift from Prof Peter J Cullen; also called GFP-SNX4 WT; source: HEK293T or HeLa, transfected, overexpressed, in lysate
T6 sequence (looked up): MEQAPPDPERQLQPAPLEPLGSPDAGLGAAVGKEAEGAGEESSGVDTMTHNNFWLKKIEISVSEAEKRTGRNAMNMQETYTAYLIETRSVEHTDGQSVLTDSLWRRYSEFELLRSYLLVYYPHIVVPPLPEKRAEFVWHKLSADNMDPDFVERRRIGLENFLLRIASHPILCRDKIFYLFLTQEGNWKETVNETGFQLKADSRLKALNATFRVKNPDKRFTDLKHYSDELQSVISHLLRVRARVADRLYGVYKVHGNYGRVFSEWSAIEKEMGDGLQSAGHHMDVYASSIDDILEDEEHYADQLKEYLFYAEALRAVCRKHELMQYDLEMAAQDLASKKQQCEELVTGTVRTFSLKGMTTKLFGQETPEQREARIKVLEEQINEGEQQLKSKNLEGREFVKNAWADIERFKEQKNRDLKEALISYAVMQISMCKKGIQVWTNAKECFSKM

B1: HA-SNX32 FL (natural protein, UniProt Q86XE0 1-403, looked up)
chain: METYAEVGKEGKPSCASVDLQGDSSLQVEISDAVSERDKVKFTVQTKSCLPHFAQTEFSVVRQHEEFIWLHDAYVENEEYAGLIIPPAPPRPDFEASREKLQKLGEGDSSVTREEFAKMKQELEAEYLAIFKKTVAMHEVFLQRLAAHPTLRRDHNFFVFLEYGQDLSVRGKNRKELLGGFLRNIVKSADEALITGMSGLKEVDDFFEHERTFLLEYHTRIRDACLRADRVMRAHKCLADDYIPISAALSSLGTQEVNQLRTSFLKLAELFERLRKLEGRVASDEDLKLSDMLRYYMRDSQAAKDLLYRRLRALADYENANKALDKARTRNREVRPAESHQQLCCQRFERLSDSAKQELMDFKSRRVSSFRKNLIELAELELKHAKASTLILRNTLVALKGEP
notes: Sorting nexin 32 (SNX32), full length (FL); pcDNA3 HA N(I) SNX32 FL, subcloned from pEGFP C1 SNX32 FL; also called HA-SNX32 WT; Sorting nexin 32; source: HEK293T or HeLa, transfected, overexpressed, in lysate
In the case of B1, the “ratio of HA to GFP band intensity” value (GFP-SNX4 S448R) is reported as 0.23, the “ratio of HA to GFP band intensity” value (GFP-SNX4 Y258E) is reported as 0.33 and the “ratio of HA to GFP band intensity” value (GFP-SNX32 WT) is reported as 0.85. For the same binder, the “ratio of HA to GFP band intensity” value (GFP-SNX8) was 0.62 and the “ratio of HA to GFP band intensity” value (GFP-SNX1) was 0.98.

B2: HA-SNX32 Q259R (natural protein, UniProt Q86XE0 1-403, looked up)
chain: METYAEVGKEGKPSCASVDLQGDSSLQVEISDAVSERDKVKFTVQTKSCLPHFAQTEFSVVRQHEEFIWLHDAYVENEEYAGLIIPPAPPRPDFEASREKLQKLGEGDSSVTREEFAKMKQELEAEYLAIFKKTVAMHEVFLQRLAAHPTLRRDHNFFVFLEYGQDLSVRGKNRKELLGGFLRNIVKSADEALITGMSGLKEVDDFFEHERTFLLEYHTRIRDACLRADRVMRAHKCLADDYIPISAALSSLGTQEVNRLRTSFLKLAELFERLRKLEGRVASDEDLKLSDMLRYYMRDSQAAKDLLYRRLRALADYENANKALDKARTRNREVRPAESHQQLCCQRFERLSDSAKQELMDFKSRRVSSFRKNLIELAELELKHAKASTLILRNTLVALKGEP
notes: SNX32 with Q259R, by site directed mutagenesis of HA-tagged SNX32; source: HeLa, transfected, overexpressed, in lysate
With B2 the “ratio of HA to GFP band intensity” value (GFP-SNX4) was 0.75.

B3: HA-SNX32 R220E (natural protein, UniProt Q86XE0 1-403, looked up)
chain: METYAEVGKEGKPSCASVDLQGDSSLQVEISDAVSERDKVKFTVQTKSCLPHFAQTEFSVVRQHEEFIWLHDAYVENEEYAGLIIPPAPPRPDFEASREKLQKLGEGDSSVTREEFAKMKQELEAEYLAIFKKTVAMHEVFLQRLAAHPTLRRDHNFFVFLEYGQDLSVRGKNRKELLGGFLRNIVKSADEALITGMSGLKEVDDFFEHERTFLLEYHTEIRDACLRADRVMRAHKCLADDYIPISAALSSLGTQEVNQLRTSFLKLAELFERLRKLEGRVASDEDLKLSDMLRYYMRDSQAAKDLLYRRLRALADYENANKALDKARTRNREVRPAESHQQLCCQRFERLSDSAKQELMDFKSRRVSSFRKNLIELAELELKHAKASTLILRNTLVALKGEP
notes: SNX32 with R220E, by site directed mutagenesis of HA-tagged SNX32; source: HeLa, transfected, overexpressed, in lysate
For B3, the “ratio of HA to GFP band intensity” value (GFP-SNX4) was 1.02.

B4: HA-SNX32 R366E (natural protein, UniProt Q86XE0 1-403, looked up)
chain: METYAEVGKEGKPSCASVDLQGDSSLQVEISDAVSERDKVKFTVQTKSCLPHFAQTEFSVVRQHEEFIWLHDAYVENEEYAGLIIPPAPPRPDFEASREKLQKLGEGDSSVTREEFAKMKQELEAEYLAIFKKTVAMHEVFLQRLAAHPTLRRDHNFFVFLEYGQDLSVRGKNRKELLGGFLRNIVKSADEALITGMSGLKEVDDFFEHERTFLLEYHTRIRDACLRADRVMRAHKCLADDYIPISAALSSLGTQEVNQLRTSFLKLAELFERLRKLEGRVASDEDLKLSDMLRYYMRDSQAAKDLLYRRLRALADYENANKALDKARTRNREVRPAESHQQLCCQRFERLSDSAKQELMDFKSREVSSFRKNLIELAELELKHAKASTLILRNTLVALKGEP
notes: SNX32 with R366E, by site directed mutagenesis of HA-tagged SNX32; source: HeLa, transfected, overexpressed, in lysate
With B4 the “ratio of HA to GFP band intensity” value (GFP-SNX4) was 0.49.

B5: HA-SNX32 E256R (natural protein, UniProt Q86XE0 1-403, looked up)
chain: METYAEVGKEGKPSCASVDLQGDSSLQVEISDAVSERDKVKFTVQTKSCLPHFAQTEFSVVRQHEEFIWLHDAYVENEEYAGLIIPPAPPRPDFEASREKLQKLGEGDSSVTREEFAKMKQELEAEYLAIFKKTVAMHEVFLQRLAAHPTLRRDHNFFVFLEYGQDLSVRGKNRKELLGGFLRNIVKSADEALITGMSGLKEVDDFFEHERTFLLEYHTRIRDACLRADRVMRAHKCLADDYIPISAALSSLGTQRVNQLRTSFLKLAELFERLRKLEGRVASDEDLKLSDMLRYYMRDSQAAKDLLYRRLRALADYENANKALDKARTRNREVRPAESHQQLCCQRFERLSDSAKQELMDFKSRRVSSFRKNLIELAELELKHAKASTLILRNTLVALKGEP
notes: SNX32 with E256R, by site directed mutagenesis of HA-tagged SNX32; source: HeLa, transfected, overexpressed, in lysate
With B5 the “ratio of HA to GFP band intensity” value (GFP-SNX4) was 0.66.

Source: paper doi:10.1101/2022.11.04.515170, “Insights into cargo sorting by SNX32 in neuronal and non-neuronal cells: physiological implications in neurite outgrowth” (bioRxiv, 2022)
